For this series, the target named is DAP3-GST (UniProt P51398 1-398). Description: EMSA. On the technique in general: A gel shift assay detects complexes by their altered migration in electrophoresis.

B1: MAGT1 RNA duplex probe (structured_RNA)
RNA: GCUAAUUUUUGUGUUUUUAGUAGAGACCUCGAGGUCUCUACUAAAAAUAUGAAAAUUAGC
For B1, the binding result is “no binding”.

B2: HTR2C RNA duplex probe (structured_RNA)
RNA: AUCAUGCACCUCUGCGCUAUAUCGCUGGAUCGGUAUGUAGCAAUACGUAAUCCUAUUGAGCAUAGCCGUUUCAAUUCGCGGACUAAGGCCAUCAUGAAGAUUGCUAUUGUUUGGGCAAUUUCUAUAGGUAAAUAAAACUUUUUGGCCAUAAGAAUUGCAGCGGCUAUGCUCAAUACUUUCGGAUUAUGUACUGUGAACAACGUACAGACGUCGACUGGUAACAUUUGCGUUUGAUCGGGUUCU
With B2, the binding result is “no binding”.

These data come from paper PMC7299630.
